Results: the Human Domainome abundance scans (Beltran et al. 2025)
± gives the uncertainty stated by the source.

B1: Calcium-binding protein 2, residues 155 to 219; numbered along this chain, Q9NPB3 (parent)
chain: RELRDAFREFDTNGDGRISVGELRAALKALLGERLSQREVDEILQDVDLNGDGLVDFEEFVRMMS

Variants of: B1
Experiment: abundance fitness (aPCA) (normalised: wild type 0, dead -1); higher = more abundant; growth selection in yeast, the domain comes from the species named
Conditions: Homo sapiens

Abundance fitness: each site, then its substitutions
V55: N -0.714 ± 0.069; K -0.691 ± 0.087; L -0.028 ± 0.045; Q -0.391 ± 0.084; P -0.874 ± 0.098; G -0.829 ± 0.044; I -0.185 ± 0.054; F 0.048 ± 0.063; S -0.394 ± 0.038; E -1.02 ± 0.16; W -0.192 ± 0.053; A -0.189 ± 0.057; M -0.338 ± 0.057; R -0.78 ± 0.046; C -0.023 ± 0.041; D -1.16 ± 0.09; H -0.382 ± 0.07; T -0.038 ± 0.055
L54: V -0.241 ± 0.047; H -0.292 ± 0.31; Q -0.088 ± 0.11; I -0.223 ± 0.2; C -0.21 ± 0.14; Y -0.177 ± 0.12; A -0.211 ± 0.057; W -0.346 ± 0.043; R -0.283 ± 0.046; D -0.208 ± 0.14; T 0.012 ± 0.096; E -0.07 ± 0.056; P -0.291 ± 0.063; K -0.207 ± 0.19; F -0.212 ± 0.11; G 0.099 ± 0.053
V47: P -0.394 ± 0.049; D -0.236 ± 0.053; W -0.199 ± 0.072; I -0.204 ± 0.048; Q 0.013 ± 0.1; E -0.137 ± 0.056; M -0.303 ± 0.088; F -0.15 ± 0.051; K -0.064 ± 0.11; T -0.041 ± 0.069; Y -0.01 ± 0.058; C -0.241 ± 0.088; L -0.475 ± 0.049; N -0.211 ± 0.06; H 0.057 ± 0.12; A -0.143 ± 0.055
D46: L -0.326 ± 0.1; Y -0.475 ± 0.22; E -0.155 ± 0.078; S -0.123 ± 0.069; I -0.408 ± 0.12; V -0.343 ± 0.083; R -0.493 ± 0.066; F -0.321 ± 0.11; T 0.042 ± 0.1; K -0.148 ± 0.13; M -0.42 ± 0.076; N -0.2 ± 0.11; W -0.446 ± 0.08; H -0.366 ± 0.16; Q -0.152 ± 0.089
L44: D -0.064 ± 0.14; T 0 ± 0.12; P -0.323 ± 0.17; H 0.097 ± 0.3; G -0.01 ± 0.071; I 0.072 ± 0.15; M -0.219 ± 0.21; A 0.116 ± 0.067; K 0.055 ± 0.14; W -0.496 ± 0.25; E -0.123 ± 0.14; R -0.178 ± 0.09; V 0 ± 0.087
D52: T -0.196 ± 0.097; L -0.108 ± 0.062; C -0.124 ± 0.091; F -0.414 ± 0.18; P -0.145 ± 0.09; Q -0.121 ± 0.11; I -0.126 ± 0.082; M -0.168 ± 0.086; S -0.133 ± 0.08; Y -0.18 ± 0.072; R -0.149 ± 0.064; H -0.049 ± 0.11; K -0.094 ± 0.1; E 0.043 ± 0.068; A 0.009 ± 0.052
G51: P 0.151 ± 0.1; F -0.269 ± 0.18; W -0.301 ± 0.062; M 0.047 ± 0.071; L 0.06 ± 0.061; A 0.062 ± 0.054; V 0.003 ± 0.06; N 0.098 ± 0.12; K 0.014 ± 0.17; T 0.006 ± 0.11; H -0.071 ± 0.15; Y -0.107 ± 0.19; D 0.057 ± 0.16; E 0.181 ± 0.063; R -0.085 ± 0.04
L35: I 0.087 ± 0.15; C -0.113 ± 0.18; M -0.399 ± 0.13; S -0.031 ± 0.073; T 0.028 ± 0.14; R 0.096 ± 0.069; H 0.061 ± 0.18; Y 0.015 ± 0.16; Q 0.043 ± 0.12; K 0.244 ± 0.17; D 0.064 ± 0.076; W 0.045 ± 0.087; P -0.02 ± 0.087; E -0.109 ± 0.12; N 0.091 ± 0.26; G 0.088 ± 0.069; F -0.257 ± 0.12; A 0.1 ± 0.082; V -0.015 ± 0.089
E33: Q -0.009 ± 0.071; Y -0.119 ± 0.19; S -0.045 ± 0.068; P -0.007 ± 0.08; T -0.032 ± 0.056
R38: P -0.056 ± 0.058; N 0.085 ± 0.1; K -0.67 ± 0.47; W -0.107 ± 0.061; E -0.232 ± 0.17; C -0.079 ± 0.08; V -0.021 ± 0.071; F -0.104 ± 0.2; I 0.03 ± 0.069; M -0.112 ± 0.1; G 0.014 ± 0.042; T -0.052 ± 0.076; Y -0.114 ± 0.14; S 0.001 ± 0.08; D 0.1 ± 0.075; L -0.053 ± 0.068; Q -0.212 ± 0.21; A 0.001 ± 0.068
R34: T 0.018 ± 0.062; Q 0.088 ± 0.11; A 0.045 ± 0.084; C 0.056 ± 0.1; S -0.019 ± 0.071; V -0.129 ± 0.088; L -0.177 ± 0.06; M -0.207 ± 0.088; F -0.298 ± 0.24; N 0.043 ± 0.3; G 0.032 ± 0.077; E 0.14 ± 0.076; P 0.01 ± 0.12; K 0.187 ± 0.092; W -0.558 ± 0.22
N50: L -0.232 ± 0.062; K 0.028 ± 0.068; V -0.254 ± 0.061; W -0.627 ± 0.067; P -0.2 ± 0.062; A -0.056 ± 0.077; S -0.092 ± 0.067; T -0.022 ± 0.084; M -0.833 ± 0.2; C 0.032 ± 0.12; D 0.186 ± 0.077; I -0.488 ± 0.12; Y -0.419 ± 0.16; E -0.19 ± 0.061; Q -0.014 ± 0.09; F -0.346 ± 0.14
E42: L -0.175 ± 0.066; G -0.081 ± 0.052; W -0.183 ± 0.087; Q -0.272 ± 0.1; D -0.166 ± 0.12; K -0.178 ± 0.15; M -0.143 ± 0.14; P -0.301 ± 0.098; S -0.136 ± 0.077; C -0.074 ± 0.2; A -0.183 ± 0.068; V -0.108 ± 0.088; Y -0.309 ± 0.29; R -0.08 ± 0.089; I -0.204 ± 0.11
Q37: H -0.504 ± 0.27; W -0.031 ± 0.099; S -0.104 ± 0.13; K 0.022 ± 0.14; M -0.278 ± 0.14; L -0.017 ± 0.079; P 0.266 ± 0.16; N 0.221 ± 0.25; A 0.003 ± 0.088; R -0.087 ± 0.077; T 0.021 ± 0.082; D -0.351 ± 0.42; E 0.06 ± 0.098; G -0.072 ± 0.072; C -0.533 ± 0.25
G53: W -0.361 ± 0.069; R -0.397 ± 0.057; T -0.107 ± 0.11; D -0.088 ± 0.062; E -0.199 ± 0.086; S -0.05 ± 0.068; Y -0.012 ± 0.25; L -0.23 ± 0.067; P -0.188 ± 0.085; C -0.121 ± 0.13; H 0.011 ± 0.11; V -0.063 ± 0.062; I -0.147 ± 0.12; A -0.115 ± 0.064; M -0.141 ± 0.09
Q45: H -0.013 ± 0.22; T 0.003 ± 0.067; P -0.133 ± 0.073; M -0.141 ± 0.092; V -0.108 ± 0.068; F -0.263 ± 0.097; I -0.01 ± 0.13; G -0.19 ± 0.12; K -0.215 ± 0.19; R 0.054 ± 0.072; Y -0.16 ± 0.12; W -0.109 ± 0.076; A -0.069 ± 0.061; E -0.076 ± 0.092; S -0.147 ± 0.096; L 0.015 ± 0.064; D -0.144 ± 0.092
D56: G -0.031 ± 0.041; C -0.321 ± 0.15; H -0.015 ± 0.14; A 0.002 ± 0.082; E 0.12 ± 0.095; F -0.862 ± 0.26
V40: M 0.048 ± 0.091; W 0.041 ± 0.055; A 0.006 ± 0.07; T -0.187 ± 0.12; D 0.043 ± 0.13; K -0.04 ± 0.082; H 0.038 ± 0.095; E 0.169 ± 0.07; S -0.011 ± 0.073; G -0.055 ± 0.065; C -0.086 ± 0.097; I 0.047 ± 0.19; Q 0.063 ± 0.071; F -0.086 ± 0.24; Y -0.117 ± 0.23; R 0.108 ± 0.045
D41: K -0.095 ± 0.062; W -0.158 ± 0.075; H -0.437 ± 0.11; T -0.104 ± 0.056; C -0.059 ± 0.14; L -0.305 ± 0.092; N -0.506 ± 0.48; V -0.237 ± 0.076; M -0.302 ± 0.12; E -0.077 ± 0.083; R -0.15 ± 0.062; Q -0.365 ± 0.17; P -0.221 ± 0.14; A -0.151 ± 0.071; I -0.184 ± 0.15; G -0.162 ± 0.087; Y 0.03 ± 0.2
D48: T 0.057 ± 0.098; Q 0.127 ± 0.074; I 0.105 ± 0.41; S 0.109 ± 0.087; H 0.108 ± 0.11; W -0.103 ± 0.065; N 0.122 ± 0.13; A 0.068 ± 0.098; F -0.434 ± 0.27; K 0.152 ± 0.082; R 0.185 ± 0.05; P -0.231 ± 0.086; V 0.092 ± 0.048; L -0.015 ± 0.066; Y 0.042 ± 0.099; G -0.529 ± 0.081; M 0.05 ± 0.11; E 0.131 ± 0.1
S36: G -0.093 ± 0.055; R -0.004 ± 0.057; K 0.047 ± 0.11; I 0 ± 0.43; P -0.107 ± 0.065; T 0.012 ± 0.12; M -0.092 ± 0.093; E 0.024 ± 0.07; Q 0.047 ± 0.1; W -0.177 ± 0.07; F -0.085 ± 0.13; N -0.197 ± 0.14; L 0.025 ± 0.054; Y -0.263 ± 0.18; H -0.564 ± 0.28; V 0.07 ± 0.064; A 0.041 ± 0.066
I43: A 0.254 ± 0.091; Y -0.345 ± 0.33; K 0.053 ± 0.067; P -0.032 ± 0.12; M -0.017 ± 0.074; G 0.123 ± 0.069; Q 0.099 ± 0.11; R 0.03 ± 0.065; T 0.092 ± 0.084; N 0.053 ± 0.18; E 0.038 ± 0.12; V 0.01 ± 0.084; W -0.142 ± 0.056; S 0.08 ± 0.063; F -0.282 ± 0.29; C -0.009 ± 0.14; H 0.161 ± 0.17
